Data taken from US20210230288A1.

Assays:
IgG Fc (control) [1] = assay: phage ELISA on control (IgG Fc), 89 identical clones
IgG Fc (control) [2] = assay: phage ELISA on control (IgG Fc), upper end
IgG Fc (control) [3] = assay: phage ELISA on control (IgG Fc), lower end

B1: bb10 (SEQ ID NO 19), phage clone (designed binder)
chain: MGSWAEFKQRLAAIKTRLEALGGSEAELAAFLGEIWAFEMELAAYKGKGNPEVEALGREAAAIRMELQAYRHN
ELISA absorbance (IgG Fc (control) [1]): 0.067 OD | ELISA absorbance (IgG Fc (control) [2]): 0.125 OD | ELISA absorbance (IgG Fc (control) [3]): 0.056 OD
